Where a chain is given by its changes, count along the chain named. In names and notes the source's numbering stands.
Columns and labels:
[1] = biological target: mouse CD36-His overexpressed on stable F293 cells (mouse, UniProt Q08857 1-472); experiment: cell-based or functional assay
[2] = biological target: full-length human CD36-Flag overexpressed on stable F293 cells (human, UniProt P16671 2-472); experiment: cell-based or functional assay
[3] = biological target: T1, Recombinant His-tagged mouse CD36.ECD protein (Sino Biological) (mouse, UniProt Q08857 30-439); experiment: ELISA, coated His-tagged mouse CD36.ECD
T1 construct: Bought protein; also called mCD36.ECD; mCD36; not shown: His tag
Experimental: (§1) ELISA materials and methods: Recombinant His-tagged human CD36.ECD protein or His-tagged mouse CD36.ECD protein (both from Sino Biological) was immobilized on 96 well microtiter plate at a concentration of 1 μg/mL in Coating Solution (SeraCare) overnight at 4° C. The wells were washed with wash solution (0.05% Tween20 in PBS) and blocked with 1% BSA in PBS. Serial dilutions of anti-CD36 antibodies were added to wells. After incubation at 37° C. for 1 h, the wells were washed with wash solution. Peroxidase-conjugated Goat anti-human kappa Light chain antibody (Sigma) was applied to each well at 37° C. for 1 h incubation. After washing, the wells were developed with TMB substrate for 5-10 min at room temperature and then stopped with 1 N HCl. Thereafter absorbance was measured at 450 nm and 650 nm. EC50 values were calculated through GraphPad Prism7.
(§2) Results: ELISA data plots showing binding to either human CD36.ECD or mouse CD36.ECD are depicted in FIG. 1A and FIG. 1B, respectively, for the full-length IgG anti-CD36 antibody 12P109, and additional positive clones, 12P102, 12P103, 12P104, 12P105, 12P106, 12P107, 12P110 and 12P212.

[4] = biological target: T2, Recombinant His-tagged human CD36.ECD protein (Sino Biological) (human, UniProt P16671 30-439); experiment: BLI (Octet), antibody on AHC sensor, His-tagged hCD36.ECD in solution, 1:1 fit
T2 construct: Bought protein; also called hCD36.ECD; hCD36; not shown: His tag
Experimental: BLI assay materials and method: Kinetic rate constants, ka and kd, for binding of the anti-CD36 antibodies to human CD36 were measured by Bio-Layer Interferometry (BLI) (ForteBio Octet RED96). […] Rate constants were calculated by curve fitting analyses (1:1 Langmuir model) of binding response with a 2.5-minute association and 5-minute dissociation interaction time.

[5] = biological target: T1, Recombinant His-tagged mouse CD36.ECD …; experiment: ELISA, coated mouse CD36.ECD (FIG. 1D)
Experimental: as §1
(§3) ELISA data plots showing binding of anti-CD36 antibodies to recombinant human CD36.ECD or mouse CD36.ECD coated on ELISA plates are depicted in FIG. 1C and 1D, respectively.

[6] = biological target: T2, Recombinant His-tagged human CD36.ECD …; experiment: ELISA, coated human CD36.ECD (FIG. 2A)
Experimental: as §1
(§4) The competitor anti-CD36 antibody ONA, which is derived from clone “ONA-0-v1” as disclosed in WO2021176424A1 in hIgG4-S228P-FALA format.

[7] = biological target: T2, Recombinant His-tagged human CD36.ECD …; experiment: ELISA, coated His-tagged human CD36.ECD
Experimental: as §1, §2

[8] = biological target: T2, Recombinant His-tagged human CD36.ECD …; experiment: ELISA, coated human CD36.ECD (FIG. 1C)
Experimental: as §1, §3

[9] = biological target: T2, Recombinant His-tagged human CD36.ECD …; experiment: hCD36 ELISA, plate coated with human CD36.ECD, antibody titrated, OD (450-650) nm
Experimental: as §1, §4

T2 sequence (P16671 30-439 limits assumed): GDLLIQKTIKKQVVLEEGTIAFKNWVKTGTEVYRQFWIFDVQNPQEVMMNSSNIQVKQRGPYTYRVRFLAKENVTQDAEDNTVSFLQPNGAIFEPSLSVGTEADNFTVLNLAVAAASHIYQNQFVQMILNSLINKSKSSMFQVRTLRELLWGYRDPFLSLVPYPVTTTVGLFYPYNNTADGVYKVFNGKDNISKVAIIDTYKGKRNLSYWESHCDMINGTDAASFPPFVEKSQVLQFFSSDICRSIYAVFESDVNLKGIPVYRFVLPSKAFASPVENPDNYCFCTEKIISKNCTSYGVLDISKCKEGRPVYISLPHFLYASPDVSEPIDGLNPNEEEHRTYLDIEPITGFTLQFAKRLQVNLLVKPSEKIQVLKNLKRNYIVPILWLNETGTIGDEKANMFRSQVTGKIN
T1 sequence (Q08857 30-439 limits assumed): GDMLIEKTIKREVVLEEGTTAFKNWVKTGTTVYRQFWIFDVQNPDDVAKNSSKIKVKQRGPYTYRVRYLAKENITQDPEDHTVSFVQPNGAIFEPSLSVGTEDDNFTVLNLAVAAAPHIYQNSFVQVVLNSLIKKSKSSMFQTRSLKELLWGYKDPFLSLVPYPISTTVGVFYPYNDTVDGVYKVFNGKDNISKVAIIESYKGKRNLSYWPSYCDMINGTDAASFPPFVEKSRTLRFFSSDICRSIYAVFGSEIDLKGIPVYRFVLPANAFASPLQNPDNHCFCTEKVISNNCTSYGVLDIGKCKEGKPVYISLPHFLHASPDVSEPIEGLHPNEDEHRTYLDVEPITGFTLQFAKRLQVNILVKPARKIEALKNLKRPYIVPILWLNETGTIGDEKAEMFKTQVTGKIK
Chain of full-length human CD36-Flag overexpressed on stable F293 cells (P16671 2-472): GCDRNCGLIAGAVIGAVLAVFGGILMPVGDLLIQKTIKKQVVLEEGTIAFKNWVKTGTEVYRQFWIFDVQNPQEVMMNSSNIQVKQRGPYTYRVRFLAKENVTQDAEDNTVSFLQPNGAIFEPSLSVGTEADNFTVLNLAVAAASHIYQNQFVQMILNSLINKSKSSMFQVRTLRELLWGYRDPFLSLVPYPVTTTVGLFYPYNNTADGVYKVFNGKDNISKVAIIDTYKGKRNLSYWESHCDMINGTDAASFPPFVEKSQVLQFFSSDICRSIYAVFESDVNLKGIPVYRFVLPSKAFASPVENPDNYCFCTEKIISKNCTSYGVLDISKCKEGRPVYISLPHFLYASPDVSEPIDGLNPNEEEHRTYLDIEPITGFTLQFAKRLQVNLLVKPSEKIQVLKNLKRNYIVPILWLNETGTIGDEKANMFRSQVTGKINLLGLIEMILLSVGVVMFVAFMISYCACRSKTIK
Chain of mouse CD36-His overexpressed on stable F293 cells (Q08857 whole entry): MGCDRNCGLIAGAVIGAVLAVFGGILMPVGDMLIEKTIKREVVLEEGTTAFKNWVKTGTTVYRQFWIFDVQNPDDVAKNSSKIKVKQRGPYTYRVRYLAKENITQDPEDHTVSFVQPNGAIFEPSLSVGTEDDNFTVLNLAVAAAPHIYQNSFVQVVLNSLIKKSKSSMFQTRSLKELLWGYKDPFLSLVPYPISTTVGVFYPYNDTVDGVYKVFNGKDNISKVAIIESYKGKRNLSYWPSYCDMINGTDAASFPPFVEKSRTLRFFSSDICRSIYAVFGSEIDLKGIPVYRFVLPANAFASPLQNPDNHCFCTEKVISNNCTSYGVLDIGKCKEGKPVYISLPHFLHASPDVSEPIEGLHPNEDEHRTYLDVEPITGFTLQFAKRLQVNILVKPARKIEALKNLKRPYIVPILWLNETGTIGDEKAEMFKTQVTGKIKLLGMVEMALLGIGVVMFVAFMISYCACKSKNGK

B1: 12P109 (antibody, human IgG1, kappa, N297A, V domains shown)
VH: EVQLVESGGGLVQPGGSLRLSCAASGFTISSFGIHWVRQAPGKGLEWVAWIAPYGGYTYYADSVKGRFTISADTSKNTAYLQMNSLRAEDTAVYYCARSFFGYFDYWGQGTLVTVSS
VL: DIQMTQSPSSLSASVGDRVTITCRASQDVSNWVAWYQQKPGKAPKLLISTSTSLYSGVPSRFSGSGSGTDFTLTISSLQPEDFATYYCQQYYTLPFTFGQGTKVEIKR
notes: Full-length human IgG1-N297A, kappa; also called 12P109 (IgG1)
[1]
  oxLDL uptake IC50 (nM), F293/mCD36: 0.86 nM
[2]
  oxLDL uptake IC50 (nM), F293/hCD36: 0.401 nM
[3]
  EC50: 0.137 nM
[4]
  Kd: 18.5 nM
  koff: 0.00963 s⁻¹
  kon: 522000 M⁻¹ s⁻¹
[5]
  EC50: 9.45 nM
[6]
  EC50: 1.53 nM
[7]
  EC50: 0.213 nM
[8]
  EC50: 43.2 nM

B2: A8A (antibody, human IgG1, kappa, N297A, V domains shown)
VH: B1 VH
VL: B1 VL with T50Y, S51A, T52N, Y91H, Y92S, T93N, F96L
notes: Full-length human IgG1-N297A, kappa; also called A8A (IgG1)
[4]
  Kd: 3.42 nM
  koff: 0.00462 s⁻¹
  kon: 1.35e+06 M⁻¹ s⁻¹
[5]
  EC50: 0.94 nM
[8]
  EC50: 5.17 nM

B3: 57T (antibody, V domains shown)
VH: B1 VH with Y57T
VL: B1 VL with T50Y, S51A, Y91H, Y92S, T93N, L94A, F96L
notes: the sheet prints only 57T
[9]
  binding result: no binding (tested: about 20 nM)

From patent US20250206837A1 (ELIXIRON IMMUNOTHERAPEUTICS HONG KONG, published 2025)
